Test results reported in the MegaScale stability set (Tsuboyama et al. 2023).

B1: EEHEE_rd3_0130 (parent)
chain: TKIIVNGKTFTAPTEEEAQKIAEKLAKKAGLTVHKKNGTFELK

Variants of: B1
Assay: folding stability dG (cDNA display proteolysis); higher = more stable
Conditions: PBS, room temperature

Folding stability dG [kJ/mol] of substitutions, site by site:
E23: N 3.48, W 3.74, H 3.36, I 3.65, C 6.34, R 3.32, A 3.1, K 2.52, M 4.33, V 2.5, D 3.26, T 2.8, Y 4.74, F 3.5, L 3.74, S 2.87, Q 3.15, G 1.03
K24: R 4.5, T 3.93, V 3.47, S 3.65, L 4.63, D 2.83, E 3.34, Q 3.65, A 4.44, I 4.14, N 3.18, H 4.17, W 7.45, Y 6.87, G 2.58, F 6.13, M 4.77
L25: F 2.72, Y 2.72, A -2.85, H -1.23, C 4.72, I 4.74, M 3.28, D -3.36, G -2.06, R -2.42, V 1.03, E -1.11, T -0.561, W 6.17, Q -2.02
H34: Q 1.86, W 1.69, G 0.49, C 5.46, K 2.08, T 4.15, S 2.85, L 3.77, R 3.01, D 0.816, E 2.84, Y 4.76, V 5.22, I 5.02, F 4.06, N 1.98, A 1.89, P -1.9, M 2.51
K35: I 3, E 0.126, N 2.02, T 0.824, L 2.77, V 3.06, Y 6.47, Q 1.72, G 0.264, W 5.61, H 2.73, R 3.34, P -1.79, M 2.64, F 6.72, S 1.38, D -0.414, A 1.33
A22: Y -1.07, M 0.598, Q -2.75, S 0.64, V 2.97, T -0.778, H -3.23, F 0.703, L 1.26, W 0.0711, G -3.47, I 2.51, R -2.64
K36: F 4.13, I 6.52, N 4.3, S 4, E 3.14, G 2.49, C 3.66, V 6.34, A 2.92, M 3.69, R 3.26, H 3.93, T 4.28, Y 4.71, D 2, L 4.22, W 2.98, P -4.11, Q 3.35
L31: W 3.1, N -3.41, G -2.11, E -3.72, C -0.418, R -1.77, I -1.46, M 3.74, V -0.13, A -0.703, F 2.98, Y 2.75, S -2.47, K -2.66, T -1.53, P -2.61, D -1.99, H -0.544, Q -1.07
A29: I 4.1, Q 3.04, W 13.4, D 1.36, E 2.54, N 4.9, Y 13.9, H 8.85, T 5.02, S 3.59, L 10.2, R 4.35, V 2.07, P -3.11, M 8.68, F 12, C 10.7, G 2.58, K 3.5
G30: A -0.163, N 1.46, Q 0.682, T 0.854, E -1.08, S 0.573, V -2.3, Y -0.151, P -2.61, H 2.22, M 0.0753, I -0.326, L -0.749, C 4.1, W -1.04, F -0.389, D 0.293, K 1.14, R 0.238
F40: C 4.11, M 0.912, I 3.28, E 1.05, H 0.364, A -1.42, P 0.611, D 0.167, K -0.163, G -0.159, L 3.03, N 0.0879
N37: Y -2.33, A 1.42, L 0.904, I -0.808, V -2, M 0.251, Q 1.18, H -0.285, F -1.55, K 1.64, E 2.64, G 2.92, R -1.36, D 3.65, C 4.4, P 0.841, S -0.728, T -1.36
V33: T 0.933, M 2.34, I 4.74, E -2.21, W 2.48, H -1.87, K -0.623, S -0.0962, Q -2.4, C 4.72, R -0.0293, Y 1.05, F 1.5, D -1.57, N -2.44, G -0.536, L 3.73, A 0.151
T32: W -1.71, G -1.19, K 2.89, N 1.17, L 1.22, A 2.41, M 1.34, Q 2.19, F 0.092, C 4.41, I 3.85, V 4.29, H 0.665, D -0.255, E 0.929, R 2.35, P -1.87, Y 0.0962, S 2.6
K28: T 3.04, Q 3.65, A 4.57, G 1.99, V 3.33, S 3.26, R 4.76, P 0.536, N 2.44, I 4.15, M 4.39, E 3.61, L 4.33, D 3.09, W 6.41, F 4.06, Y 4.44, H 3.17
T39: N 4.71, C 4.89, L 2.77, V 5.8, D 3.61, G 4.73, R 3.91, E 3.26, S 5.19, A 6.14, W 5.44, Y 6.56, K 2.32, Q 5.41, P 0.276, H 5.56, I 6.04, F 5.05, M 4.78
G38: P 0.297, W -0.197, Y 0.0377, L -0.833, A -2.6, H -0.448, K -0.368, E 0.138, F 0.209, S -3.36, Q -0.908, R -1.98, T -2.14, C 1.24, M -2.18, N 2.13, D 2.04
K27: D 1.11, W 3.13, F 3.08, Y 2.58, H 2.25, M 3.03, P -4, L 3.49, G 0.954, Q 3.18, V 1.91, N 1.73, E 2.23, S 2.46, R 4.15, T 2.18, I 2.5, A 3.4, C 4.33
A26: Y -0.0377, Q -2.13, G 0.682, R -0.695, S 0.418, T -2.31, H -1.87, W -0.577, D -3.41, E -1.83, K -0.787, M -0.632, N -2.33, L 0.393, C 1.88, V -1.22, F 0.824, I -0.828
